In the supplement of paper PMC10567573:

B1: SNX8 (parent)
chain: RMVPALPPKRMLGADREFIEARRR
B2: PHTF1 (parent)
chain: RVKLISNKGTETDNDPSCVHPIIK

Variants of: B1
Assay: protein stability index of a GFP-peptide fusion (GPS, HEK-293T) (PSI 1-6); higher = more stable
Conditions: c terminus: a fixed tail appended
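Further: lentivirally expressed fusions sorted by FACS into six bins by GFP to DsRed ratio, PSI derived from sequencing read proportions per bin multiplied by bin number.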

Protein stability index: each site, then its substitutions
E17: C 3.61 | N 4 | D 3.67 | K 4.19 | A 3.55 | Y 3.21 | R 4.1 | I 2.64 | F 2.08 | W 2.19 | L 3.37 | Q 3.34 | S 3.87 | M 2.38 | V 2.81 | P 4.09
P4: N 3.41 | F 2.98 | T 3.34 | K 3.81 | E 3.67 | Y 3.31 | R 4.13 | D 3.57 | C 3.62 | V 3.58 | I 2.52 | L 2.28 | H 3.09 | A 3.32 | W 2.77
M2: R 3.94 | K 4.1 | E 4.52 | L 2.76 | S 4.46 | G 3.83 | P 4.53 | C 3.22 | Q 4.57 | V 3.58 | F 3.44 | A 3.94 | W 2.14
K9: A 4.09 | E 4.12 | V 4.61 | R 2.99 | G 3.6 | M 3.81 | T 3.64 | H 4.53 | L 4.01 | S 4.35 | W 4.02 | Q 4.73 | D 4.12 | C 2.95 | Y 3.95 | N 4.26
A5: W 3.06 | E 4.12 | N 4.08 | Q 4.1 | P 3.59 | I 3.2 | C 3.85 | D 4.23 | Y 3.12 | S 4.05 | H 3.75 | R 4.31 | T 3.81 | L 4 | G 3.84 | K 3.77
L12: W 4.05 | C 3.91 | K 3.25 | N 4.89 | V 4.42 | M 3.95 | A 4.53 | I 4.08 | G 4.66 | Q 4.61 | T 4.43
R10: K 3.81 | E 4.84 | I 3.94 | Q 4.39 | F 3.39 | A 4.23 | C 3.61 | P 4.44 | N 3.98 | Y 3.71 | D 4.61 | H 4.21 | L 3.5 | V 4.04 | S 4.05
L6: A 4 | R 4.3 | K 3.73 | S 4.84 | N 3.96 | W 3.15 | D 4.44 | M 3.73 | I 3.96 | C 3.67 | G 3.88
E20: N 4.12 | G 4.02 | I 3.27 | K 3.94 | M 3.39 | W 3.26 | L 3.9 | C 4.06 | D 4.31 | Q 4.01 | T 3.99 | P 4.24 | H 3.98 | Y 3.68 | A 3.51
P7: V 4.05 | E 4.35 | M 3.52 | G 4.01 | K 3.91 | Y 3.49 | C 2.91 | F 3.4 | S 4.08 | Q 3.5 | L 3.18 | T 3.6 | D 3.87 | N 3.45
A14: Q 3.81 | F 3.37 | H 3.71 | M 3.24 | G 3.96 | L 3.55 | R 3.73 | N 4.72 | I 3.54 | K 3.84 | D 4.19 | V 3.02
D15: Y 2.64 | V 2.15 | M 1.56 | Q 3.93 | H 3.22 | L 1.52 | P 4.16 | T 3.69 | E 3.52 | G 3.98 | K 3.16 | I 1.91 | F 1.99 | C 2.42 | A 2.77 | S 3.77 | W 2.5
R22: A 4.33 | W 2.73 | P 3.79 | G 4.02 | M 3.16 | D 4.53 | H 3.76 | E 4.43 | F 3.58 | S 3.75 | I 2.74
F18: E 4.43 | N 4.45 | G 4.57 | S 4.38 | C 4.45 | H 4.18 | V 4.12 | Y 4.07 | R 4.52 | P 4.64 | L 3.84 | Q 4.46 | W 3.75
R23: D 4.53 | L 3.65 | G 3.79 | T 3.56 | S 3.56 | N 3.94 | Q 3.11 | I 2.58 | V 3.4 | Y 2.97 | E 4.16 | P 3.66
G13: V 2.54 | C 2.17 | R 4.06 | Q 3.25 | I 2.79 | N 3.29 | H 3.37 | L 2.69 | A 2.81 | S 3.54 | M 2.43 | T 3.14 | Y 3.13 | W 2.17
R16: H 3.67 | G 3.88 | E 4.41 | N 4.39 | F 1.96 | D 4.07 | I 2.78 | Y 2.08 | T 3.56 | M 3.55 | W 2.42
P8: E 3.86 | W 3.31 | I 3.02 | Q 3.79 | C 2.77 | T 3.31 | H 3.85 | D 3.82 | M 3.06 | F 3.18 | R 3.88 | G 3.53 | A 4.23 | Y 3.88 | L 3.17 | S 3.73
A21: N 4.52 | S 3.12 | Y 3.24 | P 3.88 | T 3.96 | F 3.31 | M 3.04 | E 3.43 | L 4.1 | V 3.76 | R 3.56 | Q 3.61 | K 4.19 | G 4.32
R24: D 4 | H 3.83 | P 3.53 | W 3.05 | S 3.46 | T 3.95 | C 3.53 | Q 3.52 | G 3.94 | E 4.23 | I 3.11 | V 3.31 | F 3.2
R1: E 3.56 | P 3.83 | K 3.74 | D 2.87 | Y 1.81 | S 3.8 | T 2.69 | I 3.21 | G 3.77 | V 3.18 | C 3.28 | L 1.96 | Q 3.54 | H 2.3 | W 1.94 | F 2.22 | A 3.86
V3: H 3.54 | W 1.7 | N 4.08 | D 4.63 | C 3.5 | Q 3.9 | G 3.07 | T 4.1 | K 4.11 | I 2.38 | S 3.88 | Y 2.96 | M 1.29 | L 1.85 | A 3.31 | R 3.94
M11: K 3.94 | D 4.62 | N 3.77 | A 3.86 | G 4.28 | H 3.52 | V 3.37 | S 4.23 | I 4.78 | Y 2.99 | L 3.69
I19: T 4.39 | M 3.55 | F 3.61 | L 3.06 | D 4.41 | Q 4.29 | E 4.11 | K 4.26 | S 3.43 | H 3.35 | V 4.09 | R 4.16 | N 3.73 | C 3.36

Variants of: B2
Assay: as above
Conditions: c terminus: a fixed tail appended

Protein stability index: each site, then its substitutions
R1: A 4.57
